Laboratory results from the supplement of paper PMC10567573.

B1: RSAD1 (parent)
chain: YCNFNKYIPRRLEEAAMQKCLVTE

Variants of: B1
Assay: protein stability index of a GFP-peptide fusion (GPS, HEK-293T) (PSI 1-6); higher = more stable
Details: c terminus: a fixed tail appended
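Further: lentivirally expressed fusions sorted by FACS into six bins by GFP to DsRed ratio, PSI derived from sequencing read proportions per bin multiplied by bin number.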

Going from YCNFNKYIPRRLEEAAMQLCLVTE [K19L] to YCNFNKYIPRRLEEAAMQYCLVTE [K19Y], the protein stability index falls from 3.06 to 2.31.

Compared with YCNFNKYIPRRLEEAAMQHCLVTE [K19H], YCNFNKYIPRRLEEAAMQKELVTE [C20E] is higher in protein stability index: 1.7 for the first, 2.02 for the second.

First: YCNFNKYIPRRLEEAAMQKDLVTE [C20D]
Second: YCNFNKYIPRRLEEAAMQKYLVTE [C20Y]
The protein stability index of the first is lower: 2.56 for the first, 4.07 for the second.

Going from YCNFNKYIPRRLEEAAMQKNLVTE [C20N] to YCNFNKYIPRRLEEAAMQKGLVTE [C20G], the protein stability index rises from 2.44 to 2.9.

Compared with YCNFNKYIPRRLEEAAMQKPLVTE [C20P], YCNFNKYIPRRLEEAAMQKQLVTE [C20Q] is higher in protein stability index: 1.95 for the first, 2 for the second.

First: YCNFNKYIPRRLEEAAMQKLLVTE [C20L]
Second: YCNFNKYIPRRLEEAAMQKALVTE [C20A]
The protein stability index of the first is higher: 2.91 for the first, 2.87 for the second.

First: YCNFNKYIPRRLEEAAMQKRLVTE [C20R]
Second: YCNFNKYIPRRLEEAAMQKHLVTE [C20H]
The protein stability index of the first is higher: 2.55 for the first, 2.31 for the second.

Compared with YCNFNKYIPRRLEEAAMQKTLVTE [C20T], YCNFNKYIPRRLEEAAMQKMLVTE [C20M] is higher in protein stability index: 1.89 for the first, 2.27 for the second.

Compared with YCNFNKYIPRRLEEAAMQKVLVTE [C20V], YCNFNKYIPRRLEEAAMQKWLVTE [C20W] is higher in protein stability index: 1.89 for the first, 2.77 for the second.

Going from YCNFNKYIPRRLEEAAMQKKLVTE [C20K] to YCNFNKYIPRRLEEAAMQKFLVTE [C20F], the protein stability index rises from 2.11 to 2.7.

Compared with YCNFNKYIPRRLEEAAMQKILVTE [C20I], YCNFNKYIPRRLEEAAMQKSLVTE [C20S] is lower in protein stability index: 3.05 for the first, 2.1 for the second.

Compared with YCNFNKYIPRRLEEAAMQKCLLTE [V22L], YCNFNKYIPRRLEEAAMQKCLGTE [V22G] is higher in protein stability index: 1.3 for the first, 2.02 for the second.

Compared with YCNFNKYIPRRLEEAAMQKCLYTE [V22Y], YCNFNKYIPRRLEEAAMQKCLWTE [V22W] is higher in protein stability index: 1.41 for the first, 2.23 for the second.

First: YCNFNKYIPRRLEEAAMQKCLCTE [V22C]
Second: YCNFNKYIPRRLEEAAMQKCLQTE [V22Q]
The protein stability index of the first is higher: 2.58 for the first, 2.5 for the second.

First: YCNFNKYIPRRLEEAAMQKCLKTE [V22K]
Second: YCNFNKYIPRRLEEAAMQKCLSTE [V22S]
The protein stability index of the first is higher: 2.57 for the first, 2.38 for the second.

First: YCNFNKYIPRRLEEAAMQKCLATE [V22A]
Second: YCNFNKYIPRRLEEAAMQKCLHTE [V22H]
The protein stability index of the first is lower: 2.25 for the first, 2.78 for the second.

Compared with YCNFNKYIPRRLEEAAMQKCLITE [V22I], YCNFNKYIPRRLEEAAMQKCLTTE [V22T] is higher in protein stability index: 2.77 for the first, 3.32 for the second.

Compared with YCNFNKYIPRRLEEAAMQKCLDTE [V22D], YCNFNKYIPRRLEEAAMQKCLNTE [V22N] is higher in protein stability index: 1.76 for the first, 2.35 for the second.

First: YCNFNKYIPRRLEEAAMQKCLRTE [V22R]
Second: YCNFNKYIPRRLEEAAMQKCLPTE [V22P]
The protein stability index of the first is higher: 3.88 for the first, 1.97 for the second.

Going from YCNFNKYIPRRLEEAAMQKCLETE [V22E] to YCNFNKYIPRRLEEAAMQKCLMTE [V22M], the protein stability index rises from 2.41 to 2.58.

Compared with YCNFNKYIPRRLEEAAMQKCLVTD [E24D], YCNFNKYIPRRLEEAAMQKCLVTW [E24W] is lower in protein stability index: 2.4 for the first, 2.13 for the second.

First: YCNFNKYIPRRLEEAAMQKCLVTP [E24P]
Second: YCNFNKYIPRRLEEAAMQKCLVTY [E24Y]
The protein stability index of the first is higher: 2.28 for the first, 2.16 for the second.

First: YCNFNKYIPRRLEEAAMQKCLVTA [E24A]
Second: YCNFNKYIPRRLEEAAMQKCLVTI [E24I]
The protein stability index of the first is higher: 3.14 for the first, 2.83 for the second.

Going from YCNFNKYIPRRLEEAAMQKCLVTM [E24M] to YCNFNKYIPRRLEEAAMQKCLVTQ [E24Q], the protein stability index falls from 2.84 to 2.38.

Compared with YCNFNKYIPRRLEEAAMQKCLVTF [E24F], YCNFNKYIPRRLEEAAMQKCLVTG [E24G] is lower in protein stability index: 2.77 for the first, 2.29 for the second.

First: YCNFNKYIPRRLEEAAMQKCLVTK [E24K]
Second: YCNFNKYIPRRLEEAAMQKCLVTR [E24R]
The protein stability index of the first is higher: 2.46 for the first, 2.32 for the second.

First: YCNFNKYIPRRLEEAAMQKCLVTV [E24V]
Second: YCNFNKYIPRRLEEAAMQKCLVTS [E24S]
The protein stability index of the first is higher: 1.9 for the first, 1.64 for the second.

First: YCNFNKYIPRRLEEAAMQKCLVTL [E24L]
Second: YCNFNKYIPRRLEEAAMQKCLVTT [E24T]
The protein stability index of the first is higher: 3.31 for the first, 1.44 for the second.

Going from YCNFNKYIPRRLEEAAMQKCLVTC [E24C] to YCNFNKYIPRRLEEAAMQKCLVTN [E24N], the protein stability index falls from 3.44 to 2.17.

Compared with YCNFNKYIPRRLEEAAMQKCLVTH [E24H], YCNFNKYIPRRLEEAAMQKCIVTE [L21I] is lower in protein stability index: 2.08 for the first, 1.79 for the second.

First: YCNFNKYIPRRLEEAAMQKCEVTE [L21E]
Second: YCNFNKYIPRRLEEAAMQKCFVTE [L21F]
The protein stability index of the first is lower: 2.41 for the first, 2.97 for the second.

Compared with YCNFNKYIPRRLEEAAMQKCPVTE [L21P], YCNFNKYIPRRLEEAAMQKCGVTE [L21G] is lower in protein stability index: 2.17 for the first, 2.03 for the second.

First: YCNFNKYIPRRLEEAAMQKCVVTE [L21V]
Second: YCNFNKYIPRRLEEAAMQKCCVTE [L21C]
The protein stability index of the first is lower: 2.01 for the first, 2.15 for the second.

Going from YCNFNKYIPRRLEEAAMQKCKVTE [L21K] to YCNFNKYIPRRLEEAAMQKCSVTE [L21S], the protein stability index falls from 2.67 to 1.42.

YCNFNKYIPRRLEEAAMQKCQVTE [L21Q] and YCNFNKYIPRRLEEAAMQKCYVTE [L21Y] are the same in protein stability index: 3.19 for the first, 3.19 for the second.

First: YCNFNKYIPRRLEEAAMQKCAVTE [L21A]
Second: YCNFNKYIPRRLEEAAMQKCDVTE [L21D]
The protein stability index of the first is lower: 2.09 for the first, 2.17 for the second.

Going from YCNFNKYIPRRLEEAAMQKCRVTE [L21R] to YCNFNKYIPRRLEEAAMQKCNVTE [L21N], the protein stability index rises from 1.51 to 2.19.

Going from YCNFNKYIPRRLEEAAMQKCTVTE [L21T] to YCNFNKYIPRRLEEAAMQKCHVTE [L21H], the protein stability index rises from 2.04 to 2.69.

First: YCNFNKYIPRRLEEAAMQKCMVTE [L21M]
Second: YCNFNKYIPRRLEEAAMQKCLVKE [T23K]
The protein stability index of the first is lower: 1.42 for the first, 2.27 for the second.

Going from YCNFNKYIPRRLEEAAMQKCLVAE [T23A] to YCNFNKYIPRRLEEAAMQKCLVHE [T23H], the protein stability index rises from 1.9 to 2.92.

Going from YCNFNKYIPRRLEEAAMQKCLVVE [T23V] to YCNFNKYIPRRLEEAAMQKCLVQE [T23Q], the protein stability index rises from 3.13 to 3.64.

Going from YCNFNKYIPRRLEEAAMQKCLVNE [T23N] to YCNFNKYIPRRLEEAAMQKCLVRE [T23R], the protein stability index falls from 2.85 to 1.78.

Going from YCNFNKYIPRRLEEAAMQKCLVYE [T23Y] to YCNFNKYIPRRLEEAAMQKCLVPE [T23P], the protein stability index rises from 2.61 to 3.87.

First: YCNFNKYIPRRLEEAAMQKCLVEE [T23E]
Second: YCNFNKYIPRRLEEAAMQKCLVLE [T23L]
The protein stability index of the first is higher: 1.94 for the first, 1.91 for the second.

Compared with YCNFNKYIPRRLEEAAMQKCLVIE [T23I], YCNFNKYIPRRLEEAAMQKCLVWE [T23W] is higher in protein stability index: 2.22 for the first, 2.85 for the second.

Going from YCNFNKYIPRRLEEAAMQKCLVFE [T23F] to YCNFNKYIPRRLEEAAMQKCLVME [T23M], the protein stability index falls from 3 to 2.17.

First: YCNFNKYIPRRLEEAAMQKCLVDE [T23D]
Second: YCNFNKYIPRRLEEAAMQKCLVSE [T23S]
The protein stability index of the first is lower: 1.78 for the first, 1.93 for the second.
